Data as given in patent publication US20240101667A1 (University of Texas, published 2024).

How the values were obtained:
[1] = target: T1, recombinant LILRB3 (human LILRB3 extracellular domain protein) (human, UniProt O75022 24-443); experiment: Octet (BLI), antibody on protein A biosensors, recombinant LILRB3 in solution
T1 construct: extracellular domain; The panning method names the 'human LILRB3 extracellular domain protein'; The Octet method says only 'recombinant LILRB3', and the antigen of the ELISA is not described; also called LILRB3-ECD
Method: Affinity measurement and epitope binning: Affinity measurement and epitope binning were done as described previously (Gui et al., 2019). Briefly, antibody affinity was analyzed with the Octet RED96 instrument. […] ForteBio's data analysis software was used to extract association and dissociation rates assuming a 1:1 binding model. The Kd was calculated as the ratio koff/kₒₙ. […] In these epitope binning assays, primary antibodies (40 μg/ml) were loaded onto protein A biosensors, and remaining Fc-binding sites on the sensor were blocked with a human non-targeting IgG (200 μg/ml). […] Raw data were processed using ForteBio's Data Analysis Software 7.0. Antibody pairs were assessed for competitive binding.

[2] = target: T2, LILRB3 with deletion of amino acids 505-515 (human, UniProt O75022 24-631); experiment: co-immunoprecipitation in 293T cells
T2 construct: Deletion mutant; not shown: hFc tag, per the general co-immunoprecipitation method
Excerpt: (§1) Western blotting and co-immunoprecipitation. Cells were lysed with RIPA buffer containing protease inhibitor (Roche Diagnostic). Samples were mixed with 2×SDS loading buffer and separated by SDS-PAGE. After transfer to nitrocellulose membranes, the protein was detected with specific primary antibodies and HRP-conjugated secondary antibodies. […] For immunoprecipitation, cells were lysed with Pierce IP Lysis Buffer (Thermo Fisher Scientific, 87787). […] Dynabeads protein A (Thermo Fisher Scientific, 10001D) was used in all co-immunoprecipitation.

[3] = target: T3, LILRB3 with amino acids 509-511 mutated from QEE to AAA (human, UniProt O75022 24-631); experiment: co-immunoprecipitation in 293T cells
T3 construct: also called B3 AAA mutant; not shown: hFc tag, per the general co-immunoprecipitation method
Excerpt: as §1

[4] = target: FLAG-cFLIP (exogenous, expressed in 293T cells) (human, UniProt O15519 1-480); experiment: co-immunoprecipitation of FLAG-cFLIP with hFc-tagged LILRB3 constructs in 293T cells (FIG. 5e)
Chain of FLAG-cFLIP (exogenous, expressed in 293T cells) (O15519 whole entry): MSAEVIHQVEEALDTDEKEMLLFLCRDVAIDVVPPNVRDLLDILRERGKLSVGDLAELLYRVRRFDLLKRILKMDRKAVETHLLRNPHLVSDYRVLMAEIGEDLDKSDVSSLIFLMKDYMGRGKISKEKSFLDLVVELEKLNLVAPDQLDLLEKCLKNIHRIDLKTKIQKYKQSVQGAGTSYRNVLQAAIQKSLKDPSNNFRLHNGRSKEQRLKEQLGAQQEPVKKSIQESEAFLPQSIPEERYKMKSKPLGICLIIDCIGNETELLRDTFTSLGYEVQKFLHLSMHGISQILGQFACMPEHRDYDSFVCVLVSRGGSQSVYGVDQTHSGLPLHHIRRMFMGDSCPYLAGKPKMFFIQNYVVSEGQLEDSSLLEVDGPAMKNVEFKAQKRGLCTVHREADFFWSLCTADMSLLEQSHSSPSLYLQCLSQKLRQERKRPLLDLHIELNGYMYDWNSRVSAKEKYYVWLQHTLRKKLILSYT
Excerpt: as §1

Binder	binding result [1]	also measured
anti-LILRB3 antibody #32 (antibody, V domains shown, Fully human IgG; Tied to clone 'B3-32' only by the clone number; also called B3-32) VH: QVQLVQSGAEVKKPGSSVKVSCKASGGTFSSYAISWVRQAPGQGLEWMGGIIPIFGTANYAQKFQGRVTITADESTSTAYMELSSLRSEDTAVYYCARGWNWFDPWGQGTMVIVSS VL: QSVLTQPPSVSADPGQKVTISCSGSSSNIGKNYVSWYQQLPGTAPKLLIYDDNRRLSGTPDRFSGSKSGTSATLGITGLQTGDEADYYCGAWDSSLSAYVFGTGTTVTVL	binds	
HA-TRAF2 (exogenous, expressed in 293T cells) (other, human, UniProt Q12933 1-501, looked up, also called exogenous HA-TRAF2; not shown: HA tag) MAAASVTPPGSLELLQPGFSKTLLGTKLEAKYLCSACRNVLRRPFQAQCGHRYCSFCLASILSSGPQNCAACVHEGIYEEGISILESSSAFPDNAARREVESLPAVCPSDGCTWKGTLKEYESCHEGRCPLMLTECPACKGLVRLGEKERHLEHECPERSLSCRHCRAPCCGADVKAHHEVCPKFPLTCDGCGKKKIPREKFQDHVKTCGKCRVPCRFHAIGCLETVEGEKQQEHEVQWLREHLAMLLSSVLEAKPLLGDQSHAGSELLQRCESLEKKTATFENIVCVLNREVERVAMTAEACSRQHRLDQDKIEALSSKVQQLERSIGLKDLAMADLEQKVLEMEASTYDGVFIWKISDFARKRQEAVAGRIPAIFSPAFYTSRYGYKMCLRIYLNGDGTGRGTHLSLFFVVMKGPNDALLRWPFNQKVTLMLLDQNNREHVIDAFRPDVTSSSFQRPVNDMNIASGCPLFCPVSKMEAKNSYVRDDAIFIKAIVDLTGL		binding result [2]: no binding; binding result [3]: no binding
anti-LILRB3 IgG #26 (antibody, V domains shown, Fully human IgG; also called B3-26) VH: QVQMVESGGGLVKPGGSLRLSCAASGFTFSDHYLSWIRQAPGKGLEWVSYIDLSGSTVYYGDSVKGRFTISRDNARNSVYLQMNSLRAEDTAVYYCARGHYGLDVWGQGTMVTVSS VL: NIQMTQSPSTLSASVGDRVTISCRASQSIGTWLAWYQQKPGKAPQLLIYKASSLHSGVPSRFSGSGSGTEFTLTISSLQPDDFATYYCQQYNLYSRTFGQGTKVEIK	binds	
B3ICDhFc (LILRB3 intracellular domain fused to hFc at C-terminus) (Fc fusion, domain: intracellular domain; also called B3ICD fused to human Fc; intracellular domain of LILRB3 alone; not shown: hFc (human Fc)) RRQRHSKHRTSDQRKTDFQRPAGAAETEPKDRGLLRRSSPAADVQEENLYAAVKDTQSEDRVELDSQSPHDEDPQAVTYAPVKHSSPRREMASPPSSLSGEFLDTKDRQVEEDRQMDTEAAASEASQDVTYAQLHSLTLRRKATEPPPSQEGEPPAEPSIYATLAIH		binding result [4]: no binding
anti-LILRB3 IgG #1 (antibody, V domains shown, Fully human IgG from scFv phage display; also called anti-LILRB3 #1; B3-1) VH: EVQLVESGGGVVQPGRSLRLSCAASGFTFSSYGMHWVRQAPGKGLEWVAFIRYDGSNKYYADSVKGRFTISRDNSKNTLYLQMNSLRAEDTAVYYCAKAGFSGWYYYGMDVWGQGTMVTVSS VL: DIVMTQSPSSLSASVGDRLTITCRASQSISTYLNWYQQKPGKAPKLLIYGASSLQSGVPSRFSGSGSGTDFTLTISSLQPEDFATYFCQQSYGLPLTFGGGTKVDIK	binds	
